Km and Vmax data for 1 protein are collected here from paper PMC6536115.

Substrate in this data set: C[C@H](O)C(=O)O
As to the kind of experiment: cells, lysate or membranes. The following applies: proton.

B1: Monocarboxylate transporter 1 (MCT1) (Mus musculus) (protein)
chain: MPPAIGGPVGYTPPDGGWGWAVLVGAFISIGFSYAFPKSITVFFKEIEVIFSATTSEVSWISSIMLAVMYAGGPISSILVNKYGSRPVMIAGGCLSGCGLIAASFCNTVQELYLCIGVIGGLGLAFNLNPALTMIGKYFYKKRPLANGLAMAGSPVFLSTLAPLNQAFFDIFDWRGSFLILGGLLLNCCVAGSLMRPIGPEQVKLEKLKSKESLQEAGKSDANTDLIGGSPKGEKLSVFQTINKFLDLSLFTHRGFLLYLSGNVVMFFGLFTPLVFLSSYGKSKDFSSEKSAFLLSILAFVDMVARPSMGLAANTKWIRPRIQYFFAASVVANGVCHLLAPLSTTYVGFCVYAGVFGFAFGWLSSVLFETLMDLIGPQRFSSAVGLVTIVECCPVLLGPPLLGRLNDMYGDYKYTYWACGVILIIAGIYLFIGMGINYRLLAKEQKAEEKQKREGKEDEASTDVDEKPKETMKAAQSPQQHSSGDPTEEESPV
In general, Km refers to the concentration of substrate that gives half-maximal velocity. Broadly, the Vmax is the rate approached at saturating substrate. B1: the Km worked out at 3.88 ± 0.86 mM and the Vmax turned out to be 0.414 µmol/min/mg.
